Data set [1] deals with Unphosphorylated human Protein kinase R (PKR), wild type (human) (UniProt P19525). As to the kind of experiment: AUC.
The data set “AUC” concerns the molecule itself. Kind of data set: AUC.

For the molecule “Unphosphorylated human Protein kinase R (PKR), wild type (from UniProt P19525 1-551) (enzyme)”, in data set [1], the Kd is 702 µM.

B1: PKR R107A (enzyme, human, UniProt P19525 1-551, looked up)
chain: MAGDLSAGFFMEELNTYRQKQGVVLKYQELPNSGPPHDRRFTFQVIIDGREFPEGEGRSKKEAKNAAAKLAVEILNKEKKAVSPLLLTTTNSSEGLSMGNYIGLINAIAQKKRLTVNYEQCASGVHGPEGFHYKCKMGQKEYSIGTGSTKQEAKQLAAKLAYLQILSEETSVKSDYLSSGSFATTCESQSNSLVTSTLASESSSEGDFSADTSEINSNSDSLNSSSLLMNGLRNNQRKAKRSLAPRFDLPDMKETKYTVDKRFGMDFKEIELIGSGGFGQVFKAKHRIDGKTYVIKRVKYNNEKAEREVKALAKLDHVNIVHYNGCWDGFDYDPETSDDSLESSDYDPENSKNSSRSKTKCLFIQMEFCDKGTLEQWIEKRRGEKLDKVLALELFEQITKGVDYIHSKKLIHRDLKPSNIFLVDTKQVKIGDFGLVTSLKNDGKRTRSKGTLRYMSPEQISSQDYGKEVDLYALGLILAELLHVCDTAFETSKFFTDLRDGIISDIFDKKEKTLLQKLLSKKPEDRPNTSEILRTLTVWKKSPEKNERHTC
In the data set “AUC”, B1 gave a Kd of 704 µM.

In general, Kd refers to the concentration at which binding is half-saturated. Read a high Kd as weaker binding.

Values taken from PMC8153938 (ACS Omega, 2021).
